Read-outs that look alike come from different tables or passages of the source.
How the values were obtained:
[1] = target: TSH receptor (detergent solubilised TSH receptor preparation) (UniProt P16473); assay: TSHR coated tubes after serum NSF 26
[2] = target: TSH receptor (detergent solubilised TSH receptor preparation) (UniProt P16473); assay: TSHR coated tubes after serum NSF 17
[3] = target: TSH receptor (detergent solubilised TSH receptor preparation) (UniProt P16473); assay: TSHR coated tubes after serum NSF 10
[4] = target: TSH receptor (detergent solubilised TSH receptor preparation) (UniProt P16473); assay: TSHR coated tubes after serum NSF 4
[5] = target: TSH receptor (detergent solubilised TSH receptor preparation) (UniProt P16473); assay: TSHR coated tubes after serum G34
[6] = target: TSH receptor (detergent solubilised TSH receptor preparation) (UniProt P16473); assay: TSHR coated tubes after serum NSF 22
[7] = target: TSH receptor (detergent solubilised TSH receptor preparation) (UniProt P16473); assay: TSHR coated tubes after serum G47
[8] = target: TSH receptor (detergent solubilised TSH receptor preparation) (UniProt P16473); assay: TSHR coated tubes after serum NSF 20
[9] = target: TSH receptor (detergent solubilised TSH receptor preparation) (UniProt P16473); assay: TSHR coated tubes after serum G39
[10] = target: TSH receptor (detergent solubilised TSH receptor preparation) (UniProt P16473); assay: TSHR coated tubes after serum G23
[11] = target: TSH receptor (detergent solubilised TSH receptor preparation) (UniProt P16473); assay: TSHR coated tubes after serum NSF 5
[12] = target: TSH receptor (detergent solubilised TSH receptor preparation) (UniProt P16473); assay: TSHR coated tubes after serum G25
[13] = target: TSH receptor (detergent solubilised TSH receptor preparation) (UniProt P16473); assay: TSHR coated tubes after serum G35
[14] = target: TSH receptor (detergent solubilised TSH receptor preparation) (UniProt P16473); assay: TSHR coated tubes after serum NSF 16
[15] = target: TSH receptor (detergent solubilised TSH receptor preparation) (UniProt P16473); assay: TSHR coated tubes after serum G24
[16] = target: TSH receptor (detergent solubilised TSH receptor preparation) (UniProt P16473); assay: TSHR coated tubes after serum G30
[17] = target: TSH receptor (detergent solubilised TSH receptor preparation) (UniProt P16473); assay: TSHR coated tubes after serum G40
[18] = target: TSH receptor (detergent solubilised TSH receptor preparation) (UniProt P16473); assay: TSHR coated tubes after serum G37
[19] = target: TSH receptor (detergent solubilised TSH receptor preparation) (UniProt P16473); assay: TSHR coated tubes after serum G28
[20] = target: TSH receptor (detergent solubilised TSH receptor preparation) (UniProt P16473); assay: TSHR coated tubes after serum G41
[21] = target: TSH receptor (detergent solubilised TSH receptor preparation) (UniProt P16473); assay: TSHR coated tubes after serum G26
[22] = target: TSH receptor (detergent solubilised TSH receptor preparation) (UniProt P16473); assay: 125I-TSHR immunoprecipitation; competitor TRAb of serum K3
[23] = target: TSH receptor (detergent solubilised TSH receptor preparation) (UniProt P16473); assay: TSHR coated tubes after serum G49
[24] = target: TSH receptor (detergent solubilised TSH receptor preparation) (UniProt P16473); assay: TSHR coated tubes after serum G36
[25] = target: TSH receptor (detergent solubilised TSH receptor preparation) (UniProt P16473); assay: TSHR coated tubes after serum G51
[26] = target: TSH receptor (detergent solubilised TSH receptor preparation) (UniProt P16473); assay: TSHR coated tubes after serum G31
[27] = target: TSH receptor (detergent solubilised TSH receptor preparation) (UniProt P16473); assay: TSHR coated tubes after serum G45
[28] = target: TSH receptor (detergent solubilised TSH receptor preparation) (UniProt P16473); assay: TSHR coated tubes after serum G43
[29] = target: TSH receptor (detergent solubilised TSH receptor preparation) (UniProt P16473); assay: TSHR coated tubes after serum G48
[30] = target: TSH receptor (detergent solubilised TSH receptor preparation) (UniProt P16473); assay: TSHR coated tubes after serum G46
[31] = target: TSH receptor (detergent solubilised TSH receptor preparation) (UniProt P16473); assay: TSHR coated tubes after serum G29
[32] = target: TSH receptor (detergent solubilised TSH receptor preparation) (UniProt P16473); assay: TSHR coated tubes after serum G44
[33] = target: TSH receptor (detergent solubilised TSH receptor preparation) (UniProt P16473); assay: TSHR coated tubes after serum G50
[34] = target: TSH receptor (detergent solubilised TSH receptor preparation) (UniProt P16473); assay: TSHR coated tubes, healthy blood donor sera
[35] = target: TSH receptor (detergent solubilised TSH receptor preparation) (UniProt P16473); assay: TSHR coated tubes, healthy blood donor sera; remark: listed apart in the source
[36] = target: TSH receptor (detergent solubilised TSH receptor preparation) (UniProt P16473); assay: TSHR coated tubes after serum G38
[37] = target: TSH receptor (detergent solubilised TSH receptor preparation) (UniProt P16473); assay: TSHR coated tubes after serum G27
[38] = target: TSH receptor (detergent solubilised TSH receptor preparation) (UniProt P16473); assay: TSHR coated tubes after serum NSF 21
[39] = target: TSH receptor (detergent solubilised TSH receptor preparation) (UniProt P16473); assay: TSHR coated tubes after serum G32
[40] = target: TSH receptor (detergent solubilised TSH receptor preparation) (UniProt P16473); assay: TSHR coated tubes after serum G52
[41] = target: TSH receptor (detergent solubilised TSH receptor preparation) (UniProt P16473); assay: TSHR coated tubes after serum G33
[42] = target: TSH receptor (detergent solubilised TSH receptor preparation) (UniProt P16473); assay: TSHR coated tubes after serum NSF 18

Chain of TSH receptor (detergent solubilised TSH receptor preparation) (P16473 21-764 limits assumed): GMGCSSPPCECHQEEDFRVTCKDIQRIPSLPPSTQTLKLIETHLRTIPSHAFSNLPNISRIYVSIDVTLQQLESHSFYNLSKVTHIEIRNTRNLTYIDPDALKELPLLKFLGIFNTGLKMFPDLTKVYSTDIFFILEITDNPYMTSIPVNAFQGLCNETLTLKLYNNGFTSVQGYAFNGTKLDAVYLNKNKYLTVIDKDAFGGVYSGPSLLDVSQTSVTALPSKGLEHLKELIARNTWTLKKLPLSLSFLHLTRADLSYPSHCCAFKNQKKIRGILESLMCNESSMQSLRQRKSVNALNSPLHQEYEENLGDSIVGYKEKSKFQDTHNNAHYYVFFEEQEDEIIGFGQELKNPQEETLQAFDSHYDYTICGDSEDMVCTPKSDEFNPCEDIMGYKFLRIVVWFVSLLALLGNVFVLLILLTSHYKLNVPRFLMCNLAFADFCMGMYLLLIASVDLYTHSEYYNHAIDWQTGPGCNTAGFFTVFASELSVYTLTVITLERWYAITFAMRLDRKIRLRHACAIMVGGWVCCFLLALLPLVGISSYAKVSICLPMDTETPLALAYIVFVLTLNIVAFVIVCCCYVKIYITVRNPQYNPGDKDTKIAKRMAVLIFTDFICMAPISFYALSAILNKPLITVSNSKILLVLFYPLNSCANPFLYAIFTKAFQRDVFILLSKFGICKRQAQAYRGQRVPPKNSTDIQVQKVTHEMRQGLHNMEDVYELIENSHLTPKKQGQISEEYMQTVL
Chain of TSH (thyrotrophin, thyroid stimulating hormone) (ligand) (P01223 21-132): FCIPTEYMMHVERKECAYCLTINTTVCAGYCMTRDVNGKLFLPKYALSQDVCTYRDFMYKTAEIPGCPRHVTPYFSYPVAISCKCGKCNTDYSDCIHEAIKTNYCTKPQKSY

TSH (thyrotrophin, thyroid stimulating hormone) (ligand)
% total counts bound (% total counts added) [1]: 12.8
% total counts bound (% total counts added) [2]: 11.5
% total counts bound (% total counts added) [3]: 12.5
% total counts bound (% total counts added) [4]: 12.5
% total counts bound (% total counts added) [5]: 7.5
% total counts bound (% total counts added) [6]: 12.4
% total counts bound (% total counts added) [7]: 4.3
% total counts bound (% total counts added) [8]: 12.3
% total counts bound (% total counts added) [9]: 7.9
% total counts bound (% total counts added) [10]: 8.9
% total counts bound (% total counts added) [11]: 12.3
% total counts bound (% total counts added) [12]: 7.2
% total counts bound (% total counts added) [13]: 4.3
% total counts bound (% total counts added) [14]: 12
% total counts bound (% total counts added) [15]: 6.9
% total counts bound (% total counts added) [16]: 5.3
% total counts bound (% total counts added) [17]: 7.2
% total counts bound (% total counts added) [18]: 9.3
% total counts bound (% total counts added) [19]: 3.8
% total counts bound (% total counts added) [20]: 10.8
% total counts bound (% total counts added) [21]: 2.6
% inhibition of TRAb binding [22]: 55.4%
% total counts bound (% total counts added) [23]: 6.1
% total counts bound (% total counts added) [24]: 10.1
% total counts bound (% total counts added) [25]: 7.9
% total counts bound (% total counts added) [26]: 4.3
% total counts bound (% total counts added) [27]: 3.5
% total counts bound (% total counts added) [28]: 4
% total counts bound (% total counts added) [29]: 4.8
% total counts bound (% total counts added) [30]: 2.7
% total counts bound (% total counts added) [31]: 8
% total counts bound (% total counts added) [32]: 12.4
% total counts bound (% total counts added) [33]: 6.3
mean % total counts bound [34]: 12.1%
mean % total counts bound [35]: 12.2%
% total counts bound (% total counts added) [36]: 10
% total counts bound (% total counts added) [37]: 7.3
% total counts bound (% total counts added) [38]: 12.3
% total counts bound (% total counts added) [39]: 7.5
% total counts bound (% total counts added) [40]: 7.4
% total counts bound (% total counts added) [41]: 6.1
% total counts bound (% total counts added) [42]: 11.2

— patent publication US20050118638A1
